{"source": "patent US12454527B2", "about": "“Conjugate monomethyl auristatin E to obtain a composition for treatment of prostate cancer” (priority 2019, dated 2025)", "type_in_all_cases": "in vivo", "key": {"[1]": {"experiment": "Body weight of mice in lymphoid leukosis P388 model", "procedure": "Lymphoid Leukosis P388 (male mice BDF1)—observation was held for 30 days since the first product administration (the product administration was started 24 hours after revaccination) and it was administered 3 times intraperitoneally in a day.\n• 1. Group 1—tumor growth control (TGC) • 2. Group 2—placebo (diluent) • 3. Group 3—intraperitoneal Conjugate (I) administration in a dose of 0.5 mg/kg 3 times; • 4. Group 4—intraperitoneal Conjugate (I) administration in a dose of 1.0 mg/kg 3 times:\nExperimental animals of control group (TGC) were administered with 0.9% saline, the placebo group was injected with the diluent (DMSO+Haemodes) of similar volume. The antineoplastic activity was determined according to mice lifespan."}, "Melanoma B16": {"system": "Melanoma B16", "experiment": "Antineoplastic activity on melanoma B16 model (tumor growth inhibition)", "conditions": "for Tumor volume, Mean / TGI %: B16, 1.0 mg/kg; for TGI %: vs TGC; for Tumor volume (individual tumors): s.c. B16 melanoma, 1.0 mg/kg i.p. x3, 1 mg/kg", "procedure": "Melanoma B16-30 days after the first product administration (the product administration was started 48 hours after revaccination) and it was administered 3 times intraperitoneally in 5 days,\n• 1. Group 1—diluent (placebo) • 2. Group 2—intraperitoneal Conjugate (I) administration in a dose of 1 mg/kg 3 times:\nExperimental animals of control group (TGC) were administered with the diluent (DMSO+Haemodes) of similar Volume (placebo product). The measurement of tumor node was performed three times (on. Day 1, 4 and 8 after treatment completion), The antineoplastic activity was determined according to the standard parameters: tumor growth inhibition TGI (>50%). The survival observation was continued up to 30 days (Table 3)."}, "[2]": {"experiment": "Pharmacokinetics in plasma of rats after a single injection", "conditions": "male, white outbred, rat, plasma; for level at 0.5 h: 0.50 hour; for level at 1.5 h: 1.50 hour", "procedure": "The pharmacokinetics study for the Conjugate (I) product in plasma of rabbits and rats after a single injection.\nThe leporids and rodents are the standard targets for preclinical studies of potential drug products as well as determining the pharmacokinetic parameters. The rabbits and rats are recommended as test systems to study pharmacokinetic properties of pharmaceutical products by the regulatory documents (FIG. 7, FIG. 8).\nThis study was performed on healthy awake white outbred mature male rats aged about 3 months with body weight of 190-210 g. […] The pharmacokinetic data, determined from this number of test animals, are sufficient to obtain the primary quantitative characteristics of test product distribution and elimination and the calculation of descriptive statistics parameters.\n• 1. Conjugate (1) • 2. Solubilizer Pluronic F127—in the amount, five-fold greater than the conjugate amount by weight. • 3, Diluent—Haemodes infusion solution. • Dimethyl sulfoxide—in the amount of 5% of the prepared volume. • Rabbit experiment (see Tables 5, 6), • Rat experiment (see Tables 7, 8)."}, "[3]": {"conditions": "rats N=6, read-out: Concentration in blood plasma, Geometr. mean"}, "[4]": {"conditions": "rats N=6, read-out: Concentration in blood plasma, Mean value"}, "[5]": {"conditions": "rats N=6, read-out: Concentration in blood plasma, Median"}}, "note": "“And” between values parts separate entries of the source, which are not always exact repeats. Equal values may be shown once. Read-outs that look alike come from different tables or passages of the source. Starred links: 1 amine or outer side, 2 acyl side, 3 side chain; linkers in the order of their positions; H or OH if unused. Non-standard residues stand in square brackets, D forms with d. Residues, ends and D or L forms follow the SMILES beside them. ξ: configuration not given here. *: point of attachment. GluureaLys(ε-3-ClBenzyl) = O=C(O)CC[C@H](NC(=O)N[C@@H](CCCCN(Cc1cccc(Cl)c1)*)C(=O)O)C(=O)O; Dolaproine = CO[C@@H]([C@@H]1CCCN1)[C@@H](C)C(=O)O; Dil = CC[C@H](C)[C@H](NC)[C@@H](CC(=O)O)OC; X1 = O=C(CCCc1cn(CCCN[*:1])nn1)[*:2]; PABC = O=C(OCc1ccc(N[*:1])cc1)[*:2]; X2 = C[C@@H](N*)[C@@H](O)c1ccccc1; Cit = NC(=O)NCCC[C@H](N)C(=O)O; Suc = O=C(CCC(=O)[*:2])[*:1]; NMeV = CN[C@H](C(=O)O)C(C)C; ξV = CC(C)C(N)C(=O)O; Ahx = NCCCCCC(=O)O", "data": [{"smiles": "CC[C@H](C)[C@@H]([C@@H](CC(=O)N1CCC[C@H]1[C@H](OC)[C@@H](C)C(=O)N[C@H](C)[C@@H](O)c1ccccc1)OC)N(C)C(=O)[C@@H](NC(=O)[C@H](C(C)C)N(C)C(=O)OCc1ccc(NC(=O)[C@H](CCCNC(N)=O)NC(=O)C(NC(=O)CCCc2cn(CCCNC(=O)[C@H](Cc3ccc(O)cc3)NC(=O)[C@H](Cc3ccccc3)NC(=O)CCC(=O)NCCCCCC(=O)N(CCCC[C@H](NC(=O)N[C@@H](CCC(=O)O)C(=O)O)C(=O)O)Cc3cccc(Cl)c3)nn2)C(C)C)cc1)C(C)C", "note": "(stereo partly drawn) [Conjugate (I)] ({GluureaLys(ε-3-ClBenzyl)-Ahx-Suc}-FY[X1][ξV][Cit][PABC][NMeV]V[Dil][Dolaproine]-X2)", "values": [{"measurement": "Body weight of mice", "setting": "[1]; 0.5 mg/kg, day 0, in g (unit assumed)", "value": "19.9 ± 0.36"}, {"measurement": "Body weight of mice", "setting": "[1]; 0.5 mg/kg, day 2, in g (unit assumed)", "value": "19.2 ± 0.28"}, {"measurement": "Body weight of mice", "setting": "[1]; 0.5 mg/kg, day 4, in g (unit assumed)", "value": "19.2 ± 0.32"}, {"measurement": "Body weight of mice", "setting": "[1]; 1.0 mg/kg, day 0, in g (unit assumed)", "value": "19.7 ± 0.36"}, {"measurement": "Body weight of mice", "setting": "[1]; 1.0 mg/kg, day 2, in g (unit assumed)", "value": "19.7 ± 0.48"}, {"measurement": "Body weight of mice", "setting": "[1]; 1.0 mg/kg, day 4, in g (unit assumed)", "value": "19.7 ± 0.42"}, {"measurement": "Tumor volume, Mean", "setting": "Melanoma B16; day 1", "value": 66, "unit": "mm^3"}, {"measurement": "TGI %", "setting": "Melanoma B16; day 1", "value": 75, "unit": "%"}, {"measurement": "Tumor volume, Mean", "setting": "Melanoma B16; day 4", "value": 433, "unit": "mm^3"}, {"measurement": "TGI %", "setting": "Melanoma B16; day 4", "value": 62, "unit": "%"}, {"measurement": "Tumor volume, Mean", "setting": "Melanoma B16; day 8", "value": 898, "unit": "mm^3"}, {"measurement": "TGI %", "setting": "Melanoma B16; day 8", "value": 61, "unit": "%"}, {"measurement": "Tumor volume (individual tumors)", "setting": "Melanoma B16; day 1 after treatment", "value": "135 mm^3 and 72 mm^3 and 64 mm^3 (2×) and 48 mm^3 and 90 mm^3 and 36 mm^3 and 16 mm^3"}, {"measurement": "Tumor volume (individual tumors)", "setting": "Melanoma B16; day 4", "value": "768 mm^3 and 364 mm^3 and 476 mm^3 and 220 mm^3 and 544 mm^3 and 525 mm^3 and 120 mm^3 and 448 mm^3"}, {"measurement": "Tumor volume (individual tumors)", "setting": "Melanoma B16; day 8", "value": "1,030 mm^3 and 855 mm^3 (2×) and 1,045 mm^3 and 675 mm^3 and 1,144 mm^3 and 972 mm^3 and 560 mm^3"}, {"measurement": "half-life", "setting": "[2]; intravenous, 1.5 mg/kg, rats, individual animals", "value": 4.11, "unit": "h"}, {"measurement": "MRT last", "setting": "[2]; intravenous, 1.5 mg/kg, rats, individual animals, read-out: MRT 0-t", "value": 3.98, "unit": "h"}, {"measurement": "level at 0.08 h", "setting": "[2]; [3]", "value": 19, "unit": "µg/mL"}, {"measurement": "level at 0.08 h", "setting": "[2]; [4]", "value": 26.1, "unit": "µg/mL"}, {"measurement": "level at 0.08 h", "setting": "[2]; [5]", "value": 19.1, "unit": "µg/mL"}, {"measurement": "level at 0.25 h", "setting": "[2]; [3]", "value": 17, "unit": "µg/mL"}, {"measurement": "level at 0.25 h", "setting": "[2]; [4]", "value": 19.9, "unit": "µg/mL"}, {"measurement": "level at 0.25 h", "setting": "[2]; [5]", "value": 18, "unit": "µg/mL"}, {"measurement": "level at 0.5 h", "setting": "[2]; [3]", "value": 16.2, "unit": "µg/mL"}, {"measurement": "level at 0.5 h", "setting": "[2]; [4]", "value": 18, "unit": "µg/mL"}, {"measurement": "level at 0.5 h", "setting": "[2]; [5]", "value": 14.3, "unit": "µg/mL"}, {"measurement": "level at 1 h", "setting": "[2]; [3]", "value": 13.4, "unit": "µg/mL"}, {"measurement": "level at 1 h", "setting": "[2]; [4]", "value": 15.2, "unit": "µg/mL"}, {"measurement": "level at 1 h", "setting": "[2]; [5]", "value": 12.5, "unit": "µg/mL"}, {"measurement": "level at 1.5 h", "setting": "[2]; [3]", "value": 10.7, "unit": "µg/mL"}, {"measurement": "level at 1.5 h", "setting": "[2]; [4]", "value": 11.6, "unit": "µg/mL"}, {"measurement": "level at 1.5 h", "setting": "[2]; [5]", "value": 10.7, "unit": "µg/mL"}, {"measurement": "level at 2 h", "setting": "[2]; [3]", "value": 10.9, "unit": "µg/mL"}, {"measurement": "level at 2 h", "setting": "[2]; [4]", "value": 11.5, "unit": "µg/mL"}, {"measurement": "level at 2 h", "setting": "[2]; [5]", "value": 10.5, "unit": "µg/mL"}, {"measurement": "level at 3 h", "setting": "[2]; [3]", "value": 7.48, "unit": "µg/mL"}, {"measurement": "level at 3 h", "setting": "[2]; [4]", "value": 7.68, "unit": "µg/mL"}, {"measurement": "level at 3 h", "setting": "[2]; [5]", "value": 7.47, "unit": "µg/mL"}, {"measurement": "level at 4 h", "setting": "[2]; [3]", "value": 5.73, "unit": "µg/mL"}, {"measurement": "level at 4 h", "setting": "[2]; [4]", "value": 5.86, "unit": "µg/mL"}, {"measurement": "level at 4 h", "setting": "[2]; [5]", "value": 5.84, "unit": "µg/mL"}, {"measurement": "level at 6 h", "setting": "[2]; [3]", "value": 4.39, "unit": "µg/mL"}, {"measurement": "level at 6 h", "setting": "[2]; [4]", "value": 4.5, "unit": "µg/mL"}, {"measurement": "level at 6 h", "setting": "[2]; [5]", "value": 4.24, "unit": "µg/mL"}, {"measurement": "level at 8 h", "setting": "[2]; rats N=6, 8.00 hour, read-out: Concentration in blood plasma, Geometr. mean", "value": 3.26, "unit": "µg/mL"}]}]}
